Source: paper PMC8584774

Target: α-cardiac actin (F-actin) (Sus scrofa)
Test: co-sedimentation; high-speed cosedimentation; F-actin (0–40 µM) with 5 µM C0–C2 or 30 µM C2; 25 mM HEPES pH 7.3, 25 mM KCl, 5 mM MgCl2, 1 mM EGTA; 30 min at room temperature; 55,000 rpm 30 min; SDS-PAGE densitometry of supernatant and pellet; quadratic fit

Kd [nM]	percent of C2 in the pellet fraction [%]	Substance
2800		MyBPC C0–C2 D389V (from UniProt Q14896 1-452) (domain or fragment)
3200		MyBPC C0–C2 wt (cardiac myosin-binding protein C, N-terminal fragment with subdomains C0 to C2) (from UniProt Q14896 1-452) (domain or fragment)
	< 2	MyBPC C2 wt (isolated IgI-like C2 domain of cardiac myosin-binding protein C) (from UniProt Q14896 362-452) (domain or fragment)
